Assay results taken from the supplement of paper PMC6379048.

Legend:
Test in all cases: EC50 of free RNA motif oligo competing protein binding to immobilised probe
[1] = biological target: MRPS2 (UniProt Q9Y399)
Summary of the method: (§1)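 Kd was calculated as EC50, taken from a four-parameter log-logistic fit, multiplied by a protein-dependent depletion factor. The assay used HEK293-FT lysate (2.5 mg protein/well) pre-incubated for 1 h at 4°C with free RNA oligos (0 nM to 30 μM), then incubated for 30 min at 4°C with the matching oligos bound through a 5′-amino-C6 linker to NHS-Sepharose beads. Bound proteins were measured by label-free LC-MS/MS and normalised to the control.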

[2] = biological target: T1, PRPF31 (UniProt Q8WWY3)
T1 sequence: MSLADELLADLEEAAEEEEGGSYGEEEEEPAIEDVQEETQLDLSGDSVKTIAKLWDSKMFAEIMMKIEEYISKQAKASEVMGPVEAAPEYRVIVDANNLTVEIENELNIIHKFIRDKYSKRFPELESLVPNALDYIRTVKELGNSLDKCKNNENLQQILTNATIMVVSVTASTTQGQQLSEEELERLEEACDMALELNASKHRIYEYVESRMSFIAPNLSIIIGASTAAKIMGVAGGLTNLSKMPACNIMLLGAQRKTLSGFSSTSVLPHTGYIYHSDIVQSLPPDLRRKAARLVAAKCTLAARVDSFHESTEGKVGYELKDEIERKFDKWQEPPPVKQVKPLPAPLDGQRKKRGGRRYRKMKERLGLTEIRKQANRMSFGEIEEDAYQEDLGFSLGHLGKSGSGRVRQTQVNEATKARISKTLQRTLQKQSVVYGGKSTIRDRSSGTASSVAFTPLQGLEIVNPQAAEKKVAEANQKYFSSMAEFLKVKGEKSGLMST
Summary of the method: as §1

[3] = biological target: MRPL14 (UniProt Q6P1L8)
Summary of the method: as §1

[4] = biological target: T2, PABPN1 (UniProt Q86U42)
T2 sequence: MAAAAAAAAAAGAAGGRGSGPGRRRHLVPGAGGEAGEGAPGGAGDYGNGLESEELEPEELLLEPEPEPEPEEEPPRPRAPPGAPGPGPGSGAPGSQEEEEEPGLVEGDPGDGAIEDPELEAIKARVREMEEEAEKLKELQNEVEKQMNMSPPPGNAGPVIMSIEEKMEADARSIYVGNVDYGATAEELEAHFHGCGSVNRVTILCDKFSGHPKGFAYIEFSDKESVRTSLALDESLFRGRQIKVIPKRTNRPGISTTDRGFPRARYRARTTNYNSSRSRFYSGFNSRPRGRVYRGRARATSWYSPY
Summary of the method: as §1

[5] = biological target: PTBP3 (UniProt O95758)
Chain of PTBP3 (O95758 whole entry): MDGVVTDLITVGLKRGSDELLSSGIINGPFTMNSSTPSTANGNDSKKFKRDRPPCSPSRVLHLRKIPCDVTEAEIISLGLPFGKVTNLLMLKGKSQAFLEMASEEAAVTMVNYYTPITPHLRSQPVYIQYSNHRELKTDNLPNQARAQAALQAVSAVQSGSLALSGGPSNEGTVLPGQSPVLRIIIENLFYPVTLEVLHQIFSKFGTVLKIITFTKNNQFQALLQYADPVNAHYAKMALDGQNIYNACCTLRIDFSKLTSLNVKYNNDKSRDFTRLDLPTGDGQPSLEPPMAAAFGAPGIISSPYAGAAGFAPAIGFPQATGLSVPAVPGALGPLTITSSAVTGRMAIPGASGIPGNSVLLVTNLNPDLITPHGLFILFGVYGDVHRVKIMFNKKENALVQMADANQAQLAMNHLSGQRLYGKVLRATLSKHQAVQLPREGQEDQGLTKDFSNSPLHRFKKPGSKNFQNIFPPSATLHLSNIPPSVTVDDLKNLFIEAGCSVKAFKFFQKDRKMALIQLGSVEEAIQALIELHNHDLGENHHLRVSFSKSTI
Summary of the method: as §1

[6] = biological target: T3, PUF60 (UniProt Q9UHX1)
T3 sequence: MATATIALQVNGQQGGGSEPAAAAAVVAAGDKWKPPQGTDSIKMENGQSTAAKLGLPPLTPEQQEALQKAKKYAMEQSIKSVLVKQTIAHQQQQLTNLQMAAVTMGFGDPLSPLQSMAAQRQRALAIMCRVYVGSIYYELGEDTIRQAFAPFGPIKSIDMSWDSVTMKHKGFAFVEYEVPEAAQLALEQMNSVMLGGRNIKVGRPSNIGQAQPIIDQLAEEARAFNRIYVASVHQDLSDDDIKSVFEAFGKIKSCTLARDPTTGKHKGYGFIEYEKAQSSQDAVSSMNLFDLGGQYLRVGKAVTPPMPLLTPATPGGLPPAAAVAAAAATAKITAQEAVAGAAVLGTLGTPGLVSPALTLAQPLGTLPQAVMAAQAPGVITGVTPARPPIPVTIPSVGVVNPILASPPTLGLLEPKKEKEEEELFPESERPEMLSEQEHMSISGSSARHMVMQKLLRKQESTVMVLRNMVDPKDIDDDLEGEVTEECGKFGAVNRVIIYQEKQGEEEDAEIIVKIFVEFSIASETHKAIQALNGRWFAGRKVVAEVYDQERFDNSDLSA
Summary of the method: as §1

[7] = biological target: T4, TIA1 (UniProt P31483)
T4 sequence: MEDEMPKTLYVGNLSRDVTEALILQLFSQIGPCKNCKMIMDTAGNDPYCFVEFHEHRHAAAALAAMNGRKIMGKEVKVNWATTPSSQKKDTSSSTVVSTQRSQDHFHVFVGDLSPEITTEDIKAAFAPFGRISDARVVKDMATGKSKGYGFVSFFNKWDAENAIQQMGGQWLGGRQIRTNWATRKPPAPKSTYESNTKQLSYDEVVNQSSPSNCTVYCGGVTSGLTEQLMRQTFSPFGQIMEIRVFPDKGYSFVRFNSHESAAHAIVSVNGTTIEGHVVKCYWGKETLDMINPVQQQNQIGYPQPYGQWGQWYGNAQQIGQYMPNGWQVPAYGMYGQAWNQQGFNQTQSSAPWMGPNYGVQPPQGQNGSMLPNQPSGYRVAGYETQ
Summary of the method: as §1

UAUUUAU
EC50 [1]: 0.0291 µM | EC50 [2]: 5.84 µM

CUGUCCU
EC50 [3]: 0.104 µM

AAUAAA
EC50 [4]: 3.52 µM | EC50 [5]: 6.99 µM | EC50 [6]: 0.899 µM | EC50 [7]: 2.11 µM
